First the molecules themselves.
B1: ATP-dependent RNA helicase DBP5 (Saccharomyces cerevisiae), P20449 (parent)
chain: MSDTKRDPADLLASLKIDNEKEDTSEVSTKETVKSQPEKTADSIKPAEKLVPKVEEKKTKQEDSNLISSEYEVKVKLADIQADPNSPLYSAKSFDELGLAPELLKGIYAMKFQKPSKIQERALPLLLHNPPRNMIAQSQSGTGKTAAFSLTMLTRVNPEDASPQAICLAPSRELARQTLEVVQEMGKFTKITSQLIVPDSFEKNKQINAQVIVGTPGTVLDLMRRKLMQLQKIKIFVLDEADNMLDQQGLGDQCIRVKRFLPKDTQLVLFSATFADAVRQYAKKIVPNANTLELQTNEVNVDAIKQLYMDCKNEADKFDVLTELYGLMTIGSSIIFVATKKTANVLYGKLKSEGHEVSILHGDLQTQERDRLIDDFREGRSKVLITTNVLARGIDIPTVSMVVNYDLPTLANGQADPATYIHRIGRTGRFGRKGVAISFVHDKNSFNILSAIQKYFGDIEMTRVPTDDWDEVEKIVKKVLKD
partner: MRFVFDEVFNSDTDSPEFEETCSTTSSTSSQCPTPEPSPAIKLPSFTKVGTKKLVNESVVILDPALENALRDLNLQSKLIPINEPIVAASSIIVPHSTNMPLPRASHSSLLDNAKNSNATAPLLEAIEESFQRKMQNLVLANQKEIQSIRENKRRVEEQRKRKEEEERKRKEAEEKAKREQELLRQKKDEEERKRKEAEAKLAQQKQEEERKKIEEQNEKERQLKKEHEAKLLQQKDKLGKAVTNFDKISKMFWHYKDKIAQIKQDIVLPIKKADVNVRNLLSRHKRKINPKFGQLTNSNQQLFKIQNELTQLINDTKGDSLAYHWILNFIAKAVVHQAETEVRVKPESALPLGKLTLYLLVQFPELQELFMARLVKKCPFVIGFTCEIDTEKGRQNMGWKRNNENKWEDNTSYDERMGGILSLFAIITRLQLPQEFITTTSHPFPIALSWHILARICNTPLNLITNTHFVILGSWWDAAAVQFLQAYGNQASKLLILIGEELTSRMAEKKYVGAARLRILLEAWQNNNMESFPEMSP

Variants of B1 are the subject of the first assay. Particulars: with gle1_yeast GLE1, Q12315.
As for MSDTKRDPADLLASLKIDNEKEDTSEVSTKETVKSQPEKTADSIKPAEKLVPKVEEKKTKQEDSNLISSEYEVKVKLADIQADPNSPLYSAKSFDELGLAPELLKGIYAMKFQKPSKIQERALPLLLHNPPRNMIAQSQSGTGKTAAFSLTMLTRVNPEDASPQAICLAPSRELARQTLEVVQEMGKFTKITSQLIVPDSFEKNKQINAQVIVGTPGTVLDLMRRKLMQLQKIKIFVLDEADNMLDQQGLGDQCIRVKRFLPKDTQLVLFSATFADAVRQYAKKIVPNANTLELQTNEVNVDAIKQLYMDCKNEADKFDVLTELYGLMTIGSSIIFVATKKTANVLYGKLKSKGHEVSILHGDLQTQERDRLIDDFREGRSKVLITTNVLARGIDIPTVSMVVNYDLPTLANGQADPATYIHRIGRTGRFGRKGVAISFVHDKNSFNILSAIQKYFGDIEMTRVPTDDWDEVEKIVKKVLKD [E353K], the “effect of a mutation on the interaction” value was “decreasing interaction”. On the same count and under the same terms, the entry for MSDTKRDPADLLASLKIDNEKEDTSEVSTKETVKSQPEKTADSIKPAEKLVPKVEEKKTKQEDSNLISSEYEVKVKLADIQADPNSPLYSAKSFDELGLAPELLKGIYAMKFQKPSKIQERALPLLLHNPPRNMIAQSQSGTGKTAAFSLTMLTRVNPEDASPQAICLAPSRELARQTLEVVQEMGKFTKITSQLIVPDSFEKNKQINAQVIVGTPGTVLDLMRRKLMQLQKIKIFVLDEADNMLDQQGLGDQCIRVKRFLPKDTQLVLFSATFADAVRQYAKKIVPNANTLELQTNEVNVDAIKQLYMDCKNEADKFDVLTELYGLMAIGSSIIFVATKKTANVLYGKLKSEGHEVSILHGDLQTQERDRLIDDFREGRSKVLITTNVLARGIDIPTVSMVVNYDLPTLANGQADPATYIHRIGRTGRFGRKGVAISFVHDKNSFNILSAIQKYFGDIEMTRVPTDDWDEVEKIVKKVLKD [T329A] is “decreasing interaction”. Still for that read-out and setting: the entry for MSDTKRDPADLLASLKIDNEKEDTSEVSTKETVKSQPEKTADSIKPAEKLVPKVEEKKTKQEDSNLISSEYEVKVKLADIQADPNSPLYSAKSFDELGLAPELLKGIYAMKFQKPSKIQERALPLLLHNPPRNMIAQSQSGTGKTAAFSLTMLTRVNPEDASPQAICLAPSRELARQTLEVVQEMGKFTKITSQLIVPDSFEKNKQINAQVIVGTPGTVLDLMRRKLMQLQKIKIFVLDEADNMLDQQGLGDQCIRVKRFLPKDTQLVLFSATFADAVRQYAKKIVPNANTLELQTNEVNVDAIKQLYMDCKNEADKFDVLTKLYGLMTIGSSIIFVATKKTANVLYGKLKSEGHEVSILHGDLQTQERDRLIDDFREGRSKVLITTNVLARGIDIPTVSMVVNYDLPTLANGQADPATYIHRIGRTGRFGRKGVAISFVHDKNSFNILSAIQKYFGDIEMTRVPTDDWDEVEKIVKKVLKD [E323K] is “disrupting interaction”; for MSDTKRDPADLLASLKIDNEKEDTSEVSTKETVKSQPEKTADSIKPAEKLVPKVEEKKTKQEDSNLISSEYEVKVKLADIQADPNSPLYSAKSFDELGLAPELLKGIYAMKFQKPSKIQERALPLLLHNPPRNMIAQSQSGTGKTAAFSLTMLTRVNPEDASPQAICLAPSRELARQTLEVVQEMGKFTKITSQLIVPDSFEKNKQINAQVIVGTPGTVLDLMRRKLMQLQKIKIFVLDEADNMLDQQGLGDQCIRVKRFLPKDTQLVLFSATFADAVRQYAKKIVPNANTLELQTNEVNVDAIKQLYMDCKNEADKFDVLTELYGLMTIGSSIIFVATKKTANVLYGKLKSEGHEVSILHGDLQTQERDRLIDDFREGRSEVLITTNVLARGIDIPTVSMVVNYDLPTLANGQADPATYIHRIGRTGRFGRKGVAISFVHDKNSFNILSAIQKYFGDIEMTRVPTDDWDEVEKIVKKVLKD [K382E] it is “disrupting interaction”; for MSDTKRDPADLLASLKIDNEKEDTSEVSTKETVKSQPEKTADSIKPAEKLVPKVEEKKTKQEDSNLISSEYEVKVKLADIQADPNSPLYSAKSFDELGLAPELLKGIYAMKFQKPSKIQERALPLLLHNPPRNMIAQSQSGTGKTAAFSLTMLTRVNPEDASPQAICLAPSRELARQTLEVVQEMGKFTKITSQLIVPDSFEKNKQINAQVIVGTPGTVLDLMRRKLMQLQKIKIFVLDEADNMLDQQGLGDQCIRVKRFLPKDTQLVLFSATFADAVRQYAKKIVPNANTLELQTNEVNVDAIKQLYMDCKNEADKFDVLTELYGLMTIGSSIIFVATKKTANVLYGKLKSEGHEVSILHGDLQTQERDRLIDDFREGRSKVLITTNVLARGIDIPTVSMVVNYDLPTLANGQADPATYIHRIGRTGRFGRKGVAISFVHDKNSFNILSAIQKYFGDIEMTRVPTDDWDEVKKIVKKVLKD [E473K] it is “disrupting interaction”. On the same count and under the same terms, the entry for MSDTKRDPADLLASLKIDNEKEDTSEVSTKETVKSQPEKTADSIKPAEKLVPKVEEKKTKQEDSNLISSEYEVKVKLADIQADPNSPLYSAKSFDELGLAPELLKGIYAMKFQKPSKIQERALPLLLHNPPRNMIAQSQSGTGKTAAFSLTMLTRVNPEDASPQAICLAPSRELARQTLEVVQEMGKFTKITSQLIVPDSFEKNKQINAQVIVGTPGTVLDLMRRKLMQLQKIKIFVLDEADNMLDQQGLGDQCIRVKRFLPKDTQLVLFSATFADAVRQYAKKIVPNANTLELQTNEVNVDAIKQLYMDCKNEADKFDVLTELYGLMTIGSSIIFVATKKTANVLYGKLKSEGHEVSILHGDLQTQERDRLIDDFREGRSKVLITTNVLARGIDIPTVSMVVNYDLPTLANGQADPATYIHRIGRTGRFGRKGVAISFVHDKNSFNILSAIQKYFGDIEMTRVPTDDWDEVAKIVKKVLKD [E473A] is “decreasing interaction”.

The variants in the next assay derive from B1. The note with it: with gle1_yeast GLE1, Q12315. The source holds these as a separate data set.
Take MSDTKRDPADLLASLKIDNEKEDTSEVSTKETVKSQPEKTADSIKPAEKLVPKVEEKKTKQEDSNLISSEYEVKVKLADIQADPNSPLYSAKSFDELGLAPELLKGIYAMKFQKPSKIQERALPLLLHNPPRNMIAQSQSGTGKTAAFSLTMLTRVNPEDASPQAICLAPSRELARQTLEVVQEMGKFTKITSQLIVPDSFEKNKQINAQVIVGTPGTVLDLMRRKLMQLQKIKIFVLDEADNMLDQQGLGDQCIRVKRFLPKDTQLVLFSATFADAVRQYAKKIVPNANTLELQTNEVNVDAIKQLYMDCKNEADKFDVLTKLYGLMTIGSSIIFVATKKTANVLYGKLKSEGHEVSILHGDLQTQERDRLIDDFREGRSKVLITTNVLARGIDIPTVSMVVNYDLPTLANGQADPATYIHRIGRTGRFGRKGVAISFVHDKNSFNILSAIQKYFGDIEMTRVPTDDWDEVEKIVKKVLKD [E323K]: the “effect of a mutation on the interaction” value is on record as “decreasing interaction”.

MSDTKRDPADLLASLKIDNEKEDTSEVSTKETVKSQPEKTADSIKPAEKLVPKVEEKKTKQEDSNLISSEYEVKVKLADIQADPNSPLYSAKSFDELGLAPELLKGIYAMKFQKPSKIQERALPLLLHNPPRNMIAQSQSGTGKTAAFSLTMLTRVNPEDASPQAICLAPSRELARQTLEVVQEMGKFTKITSQLIVPDSFEKNKQINAQVIVGTPGTVLDLMRRKLMQLQKIKIFVLDEADNMLDQQGLGDQCIRVKRFLPKDTQLVLFSATFADAVRQYAKKIVPNANTLELQTNEVNVDAIKQLYMDCKNEADKFDVLTELYGLMTIGSSIIFVATKKTANVLYGKLKSEGHEVSILHGDLQTQERDRLIDDFREGRSEVLITTNVLARGIDIPTVSMVVNYDLPTLANGQADPATYIHRIGRTGRFGRKGVAISFVHDKNSFNILSAIQKYFGDIEMTRVPTDDWDEVEKIVKKVLKD [K382E]: the “effect of a mutation on the interaction” value is recorded as “decreasing interaction”.

MSDTKRDPADLLASLKIDNEKEDTSEVSTKETVKSQPEKTADSIKPAEKLVPKVEEKKTKQEDSNLISSEYEVKVKLADIQADPNSPLYSAKSFDELGLAPELLKGIYAMKFQKPSKIQERALPLLLHNPPRNMIAQSQSGTGKTAAFSLTMLTRVNPEDASPQAICLAPSRELARQTLEVVQEMGKFTKITSQLIVPDSFEKNKQINAQVIVGTPGTVLDLMRRKLMQLQKIKIFVLDEADNMLDQQGLGDQCIRVKRFLPKDTQLVLFSATFADAVRQYAKKIVPNANTLELQTNEVNVDAIKQLYMDCKNEADKFDVLTELYGLMTIGSSIIFVATKKTANVLYGKLKSEGHEVSILHGDLQTQERDRLIDDFREGRSKVLITTNVLARGIDIPTVSMVVNYDLPTLANGQADPATYIHRIGRTGRFGRKGVAISFVHDKNSFNILSAIQKYFGDIEMTRVPTDDWDEVKKIVKKVLKD [E473K]: the “effect of a mutation on the interaction” value is “decreasing interaction”.

The record behind these values is IntAct's records for PubMed 19805289.
